Reference: patent US20180134781A1 (Regeneron, published 2018)

Assays:
[1] = target: T1, hLDLR-mFc (negative control protein with the same mFc tag) (human, UniProt P01130 22-788); test: BLI (Octet HTX), hLDLR-mFc captured on AMC sensor
T1 construct: also called Irrelevant control; not shown: mFc tag ('the same mFc tag', mouse IgG2a Fc)
Method: (§1) Binding of ANGPTL8 antibodies to human and monkey ANGPTL8 proteins was investigated using Bio-layer Interferometry with an Octet HTX biosensor platform (ForteBio, A Division of Pall Life Sciences). All experiments were performed at 25° C. in 10 mM HEPES pH 7.4, 150 mM NaCl, 0.05% v/v Surfactant Tween-20, and 1 mg/ml BSA with the reaction multiwell plate agitated at 1000 rpm. Approximately 1.6 nm of human ANGPTL8 produced with a C-terminal mouse IgG2a Fc tag (hANGPTL8-mFc; SEQ ID NO: 340) or cynomolgus monkey ANGPTL8 produced with a C-terminal mouse IgG2a Fc tag (MfANGPTL8-mFc; SEQ ID NO: 341) was captured onto anti-mFc (AMC) Octet biosensors by submerging the sensors into wells containing 10 μg/mL of each protein for 4 minutes. Under the same conditions a negative control protein with the same mFc tag (hLDLR-mFc) was also coupled to the AMC sensor. All four sensors, […] and one blank, were then submerged into wells containing 100 nM of different ANGPTL8 monoclonal antibodies or an isotype control for 4 minutes.

[2] = target: T2, monkey ANGPTL8 expressed with C-terminal mouse IgG2a Fc tag (cynomolgus monkey); test: BLI (Octet HTX), MfANGPTL8-mFc captured on AMC sensor
T2 construct: also called MfANGPTL8-mFc; mfANGPTL8-mFc
T2 chain: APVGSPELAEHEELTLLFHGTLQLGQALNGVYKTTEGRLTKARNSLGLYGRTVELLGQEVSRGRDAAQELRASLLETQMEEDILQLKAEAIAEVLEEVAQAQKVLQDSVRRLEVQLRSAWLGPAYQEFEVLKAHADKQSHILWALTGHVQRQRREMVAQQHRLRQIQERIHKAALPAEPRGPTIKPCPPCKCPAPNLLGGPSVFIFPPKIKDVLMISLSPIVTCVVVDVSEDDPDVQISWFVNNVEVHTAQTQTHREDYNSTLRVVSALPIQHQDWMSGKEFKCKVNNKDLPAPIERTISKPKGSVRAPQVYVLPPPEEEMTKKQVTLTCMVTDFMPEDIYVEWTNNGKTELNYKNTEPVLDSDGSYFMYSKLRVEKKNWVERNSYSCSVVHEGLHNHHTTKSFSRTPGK
Method: as §1

T1 sequence (P01130 22-788): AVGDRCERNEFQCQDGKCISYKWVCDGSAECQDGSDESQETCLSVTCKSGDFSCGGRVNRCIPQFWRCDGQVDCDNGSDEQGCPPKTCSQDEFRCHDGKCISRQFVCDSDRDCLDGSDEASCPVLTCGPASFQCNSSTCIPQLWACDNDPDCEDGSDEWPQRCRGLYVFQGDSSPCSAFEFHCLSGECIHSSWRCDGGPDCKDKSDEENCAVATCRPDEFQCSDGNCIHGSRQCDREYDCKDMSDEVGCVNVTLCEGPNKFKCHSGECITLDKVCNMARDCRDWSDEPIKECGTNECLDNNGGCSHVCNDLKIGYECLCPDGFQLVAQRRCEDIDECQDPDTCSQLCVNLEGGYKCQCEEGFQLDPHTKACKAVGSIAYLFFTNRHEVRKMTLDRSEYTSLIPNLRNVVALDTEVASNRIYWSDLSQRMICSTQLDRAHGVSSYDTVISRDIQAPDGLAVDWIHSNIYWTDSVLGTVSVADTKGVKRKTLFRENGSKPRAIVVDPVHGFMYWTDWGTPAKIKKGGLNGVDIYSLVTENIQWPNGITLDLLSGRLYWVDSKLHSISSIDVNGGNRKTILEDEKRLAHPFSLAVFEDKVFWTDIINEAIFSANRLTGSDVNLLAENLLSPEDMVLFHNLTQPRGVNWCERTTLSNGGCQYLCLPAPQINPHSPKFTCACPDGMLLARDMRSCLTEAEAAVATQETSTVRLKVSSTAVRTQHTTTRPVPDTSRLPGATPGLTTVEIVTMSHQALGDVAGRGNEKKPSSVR

B1: H4H15346P (antibody, human IgG4, V domains shown)
VH: EVQLVESGGGLVQPGGSLRLSCAASGFTFSNYAMSWVRQAPGKGLEWVSTISDTGGSTYYADSVKGRFALSRDNSRNTLYLQMNSLRAEDTAVYYCAKEGPPDYWGQGTLVTVSS
VL: EIVLTQSPATLSLSPGERATLSCRTSQSVSIYLAWYQQKPGQAPRLLIYDASKRATGIPARFSGRGSGTDFTLTISSLEPEDFAVYYCQQRSNWPLTFGQGTRLEIK
notes: human IgG4 Fc (H4H prefix)
What does the source list for B1?
binding result [1]: no binding (tested: 0.03 nm at 100 nM mAb); binding result [2]: no binding (tested: background 0.03 nm at 100 nM mAb)

B2: H4H15357P2 (antibody, human IgG4, V domains shown)
VH: EVQLVESGGGLVKPGGSLRLSCTASGFTFGNAWMSWVRQAPGKGLEWVGLIKGKTDGGTTNYAAPVKGRFTISRDDSKNTLYLHLNSLRTEDTALYYCTTDQVELRQYYYYGLDVWGQGTTVTVSS
VL: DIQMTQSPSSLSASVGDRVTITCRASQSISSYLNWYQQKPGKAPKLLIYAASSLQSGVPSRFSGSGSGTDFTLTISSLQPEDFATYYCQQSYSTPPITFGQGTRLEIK
notes: human IgG4 Fc (H4H prefix)
Does B2 bind [1]?
Result: no binding (tested: 0.03 nm at 100 nM mAb)

B3: H4H15347P (antibody, human IgG4, V domains shown)
VH: EVQLVESGGGLVQPGGSLRLSCAASGFTFRNYAMNWARQAPGKGLEWVSGITGSGGATYYADSVKGRFTISRENSKNTLFLQMDTLRAEDTAVYYCAKDRRYFPTSGGPQWGQGTLVTVSS
VL: DIVMTQSPLSLPVTPGEPASISCRSSRSLLHSSGYNYLDWYLQKPGQSPQLLLYLGSNRASGVPDRFSGSGSGTYFTLKISRVDAEDVGVYYCMQALQTPWTFGQGTKVEIK
notes: human IgG4 Fc (H4H prefix)
Does B3 bind [1]?
Result: no binding (tested: 0.03 nm at 100 nM mAb)

B4: H4H15363P2 (antibody, human IgG4, V domains shown)
VH: EVQLVESGGGLVQPGGSLRLSCAASGFTFSNYAMSWVRQVPGKGLEWVSTISGSGGSTYYADSVKGRFTISRDNSKNSLYLQMNSLRAEDTAVYYCAKLVRGVIGWFDPWGQGTLVTVSS
VL: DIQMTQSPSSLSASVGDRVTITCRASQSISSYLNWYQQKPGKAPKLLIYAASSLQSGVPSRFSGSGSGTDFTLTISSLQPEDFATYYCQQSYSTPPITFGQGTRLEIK
notes: human IgG4 Fc (H4H prefix)
Does B4 bind [1]?
Result: no binding (tested: 0.03 nm at 100 nM mAb)

B5: H4H15334P (antibody, human IgG4, V domains shown)
VH: QVQLQESGPGLVKPSQTLSLTCTVSGGSINSGGYYWNWIRQHPGKGLEWIGYIYYSGSTYFNPSLKSRVTISIDTSKNQFSLKLSSVTAADTAVYYCAREGIYAFDYWGQGTLVTVSS
VL: DIQMTQSPSSLSASVGDRVTITCRASQGIRNDLGWYQQKPGKAPKRLIYSASSLQSGVPSRFGGSGSGTEFTLTISSLQPEDFATYYCLQHNSYPWTFGQGTKVEIK
notes: human IgG4 Fc (H4H prefix)
Does B5 bind [1]?
Result: no binding (tested: 0.03 nm at 100 nM mAb)

Does B5 bind [2]?
Result: no binding (tested: background 0.03 nm at 100 nM mAb)

B6: H4H15355P2 (antibody, human IgG4, V domains shown)
VH: QVQLVESGGGVVQPGRSLRLSCAASGFTFTNYAMHWVRQAPGKGLEWVAVISYDGSHTYFADSVKGRFTMSRDNSKNTISLQMNSLRPEDTAVYFCAGGGATTWFYFYGLDVWGQGTTVTVSS
VL: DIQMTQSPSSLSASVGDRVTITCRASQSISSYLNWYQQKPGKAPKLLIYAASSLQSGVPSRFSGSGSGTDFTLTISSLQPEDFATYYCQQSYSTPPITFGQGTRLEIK
notes: human IgG4 Fc (H4H prefix)
Does B6 bind [1]?
Result: no binding (tested: 0.03 nm at 100 nM mAb)

B7: H4H15321P (antibody, human IgG4, V domains shown)
VH: EVQLVESGGGLVQPGGSLRLSCAASGFTFSSYAMSWVRQAPGKGLEWVSAITGSGGRTYYADSVKGRFTISRDNAKNTLYLQMNSLRAEDTAVYYCAKNFPFDYWGQGTLVTVSS
VL: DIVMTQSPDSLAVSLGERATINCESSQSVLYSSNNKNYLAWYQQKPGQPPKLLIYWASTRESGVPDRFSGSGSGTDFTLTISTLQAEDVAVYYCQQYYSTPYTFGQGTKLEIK
notes: human IgG4 Fc (H4H prefix)
Does B7 bind [1]?
Result: no binding (tested: 0.03 nm at 100 nM mAb)

B8: H4H15345P (antibody, human IgG4, V domains shown)
VH: EVQLVESGGGLVQPGGSLRLSCAASGFTFSTYAMSWVRQAPGKGLEWVSVISGSFISTYYADSVKGRFTISRDNSKNTLYLQMTSLRAEDTAVYYCAKNSPFDYWGQGTLVTVSS
VL: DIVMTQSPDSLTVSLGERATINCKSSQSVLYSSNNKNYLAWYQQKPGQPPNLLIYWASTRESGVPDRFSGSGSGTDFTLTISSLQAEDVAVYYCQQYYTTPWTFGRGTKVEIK
notes: human IgG4 Fc (H4H prefix)
Does B8 bind [1]?
Result: no binding (tested: 0.03 nm at 100 nM mAb)

B9: H4H15330P (antibody, human IgG4, V domains shown)
VH: QVQLVESGGGLVKPGGSLRLSCAASGFTFSDYYMSWIRQAPGKGLEWISHISGSGRTTHYADSMKGRFTISRDNAKNSLYLQMNSLRAEDTAVYYCVREGGFNWNYEGTFDIWGQGTMVTVSS
VL: DIVMTQTPLSSPVTLGQPASISCRSSQSLLHSDQNTYLSWLHQRPGQPPRLLIYKISNRFSGVPDRFSGSGAGTDFTLKISRVEAEDVGIYYCMQGTQFPLTFGGGTKVEIK
notes: human IgG4 Fc (H4H prefix)
Does B9 bind [1]?
Result: no binding (tested: 0.03 nm at 100 nM mAb)

B10: H4H15367P2 (antibody, human IgG4, V domains shown)
VH: QVQLVESGGGVVQPGRSVRLSCGASGFTFKYYGMHWVRQAPGKGLEWVAVIWYDGRNKFYADSVKGRFTISRDNSKNTVNLEMNNLRAEDTAIYYCARDGGTADGDYFDYWGQGTLVTVSS
VL: not shown
notes: human IgG4 Fc (H4H prefix)
Does B10 bind [1]?
Result: no binding (tested: 0.03 nm at 100 nM mAb)

B11: H4H15361P2 (antibody, human IgG4, V domains shown)
VH: EVQLVESGGGLVQPGRSLRLSCTASGFSFGDNAMGWVRQAPGKGLEWVSFIRRKASGGTTEYAASVKGRFTISRDDSKSIAYLQMNSLKTEDTGVYYCTRGGAVYGYWGQGTLVTVSS
VL: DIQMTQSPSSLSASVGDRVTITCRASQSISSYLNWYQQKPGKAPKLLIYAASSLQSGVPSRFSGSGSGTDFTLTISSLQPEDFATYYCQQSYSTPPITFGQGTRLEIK
notes: human IgG4 Fc (H4H prefix)
Does B11 bind [1]?
Result: no binding (tested: 0.03 nm at 100 nM mAb)

B12: H4H15369P2 (antibody, human IgG4, V domains shown)
VH: EVQLVESGGGLVQPGGSLRLSCVGTGFTFSNYAMSWVRQAPGKGLEWVSGISGRSSGTFYADSVKGRFTISRDNSQNTLYLQMNSLGAEDTAVYYCAKVSRYNWDYVPFDFWGQGTLVTVSS
VL: not shown
notes: human IgG4 Fc (H4H prefix)
Does B12 bind [1]?
Result: no binding (tested: 0.03 nm at 100 nM mAb)

B13: H4H15318P (antibody, human IgG4, V domains shown)
VH: QVQLVESGGGVVQPGRSLRLSCTASGFTFGNFGIHWVRQAPGKGLEWVAVISYDGTDKFYADPVKGRFIISRDNSMNILYLQMNSLRAEDTAVYYCAKDGEMELRGYYYYYGMDVWGQGTTVTVSS
VL: DIQMTQSPSSVSASVGDRVTITCRASQGINTWLAWYQQKPGTAPKLLIFAASSLESGVPSRFSGSGFGTDFTLTISSLQSEDLATYFCQQVHSPPYTFGQGTKLEIK
notes: human IgG4 Fc (H4H prefix)
Does B13 bind [1]?
Result: no binding (tested: 0.03 nm at 100 nM mAb)

B14: H4H15335P (antibody, human IgG4, V domains shown)
VH: QVQLVESGGGVVQPGRSLRLSCAASGFTFNNYGIHWVRQAPGKGLEWVAVISYDESNKYYADSVKGRFTISRDNSKNTLYLQMNSLRAEDTAVYYCAKDIRIAARRHYYYYGMDVWGQGTTVTVSS
VL: DIQMTQSPSSVSASVGDRVTITCRASQGISRWLAWYQQKPGKAPKLLIYAASSLESGVPARFSGSGSGTDFTLTISSLQPEDFATYYCQQANSFPITFGPGTKVDIK
notes: human IgG4 Fc (H4H prefix)
Does B14 bind [1]?
Result: no binding (tested: 0.03 nm at 100 nM mAb)

B15: H4H15350P2 (antibody, human IgG4, V domains shown)
VH: EVQLVESGGGLVQPGGSLRLSCAASGFTFSSFRMTWVRQAPGKGLEWVANIKQDGSEKYYVDSVKGRFTISRDNAKNSLYLQMNSLRAEDTAVYYCARGGGIAAYWGQGTLVTVSS
VL: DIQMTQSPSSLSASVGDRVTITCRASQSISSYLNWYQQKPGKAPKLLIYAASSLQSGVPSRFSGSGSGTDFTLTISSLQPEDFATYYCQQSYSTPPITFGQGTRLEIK
notes: human IgG4 Fc (H4H prefix)
Does B15 bind [1]?
Result: no binding (tested: 0.03 nm at 100 nM mAb)

B16: H4H15354P2 (antibody, human IgG4, V domains shown)
VH: QVQLVESGGGVVQPGRSLRLSCTASGFTFNNYGIHWVRQAPGKGLEWVAVISYDGSNKFYAESVRGRFTISRDNSRNTLFLQMISLRGEDSAVYYCAKDRPYYDILTAHYPSDYYFYAMDVWGHGTTVTVSS
VL: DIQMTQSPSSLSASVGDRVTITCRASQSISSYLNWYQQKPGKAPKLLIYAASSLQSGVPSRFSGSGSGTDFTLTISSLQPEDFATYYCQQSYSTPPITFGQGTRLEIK
notes: human IgG4 Fc (H4H prefix)
Does B16 bind [1]?
Result: no binding (tested: 0.03 nm at 100 nM mAb)

Does B16 bind [2]?
Result: no binding (tested: background 0.03 nm at 100 nM mAb)

B17: H4H15362P2 (antibody, human IgG4, V domains shown)
VH: QVQLVESGGGVVQPGRSLRLSCAASGFTFSSYGMHWVRQAPGKGLEWVAVIWYDGSNKYYADSVKGRFTISRDNSKNTLYLQMNSLRAEDTAVYYCARDWVRFLEWFPHFDYWGQGTLVTVSS
VL: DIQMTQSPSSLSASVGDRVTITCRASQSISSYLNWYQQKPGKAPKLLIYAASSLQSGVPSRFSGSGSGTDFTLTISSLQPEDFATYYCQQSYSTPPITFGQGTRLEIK
notes: human IgG4 Fc (H4H prefix)
Does B17 bind [1]?
Result: no binding (tested: 0.03 nm at 100 nM mAb)

B18: H4H15323P (antibody, human IgG4, V domains shown)
VH: EVQLVESGGGLVQPGGSLRLSCAASGFTFSSYAMTWVRQAPGKGLEWVSAISGSGGSTYYTDSVKGRFTLSRDNSKNTLYLQMNSLRAEDTAVYYCAKSDYSNTIYWYYGMDVWGQGTTVTVSS
VL: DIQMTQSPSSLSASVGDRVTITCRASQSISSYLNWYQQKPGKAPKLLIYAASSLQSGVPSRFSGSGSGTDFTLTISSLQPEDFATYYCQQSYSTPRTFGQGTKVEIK
notes: human IgG4 Fc (H4H prefix)
Does B18 bind [1]?
Result: no binding (tested: 0.03 nm at 100 nM mAb)
